Data on two proteins can be found in paper doi:10.1101/2020.10.19.345710 (bioRxiv, 2020).

Residue numbers refer to the chain shown, from its start. Names may count otherwise.

This data set concerns the molecule itself. The data set is described as follows: thioflavin T fluorescence.

B1: FUS LC, low complexity domain of Fused in sarcoma (FUS), residues 1-163 (domain or fragment, UniProt P35637 1-163, looked up)
chain: MASNDYTQQATQSYGAYPTQPGQGYSQQSSQPYGQQSYSGYSQSTDTSGYGQSSYSSYGQSQNTGYGTQSTPQGYGSTGGYGSSQSSQSSYGQQSSYPGYGQQPAPSSTSGSYGSSSQSSSYGQPQSGSYSQQPSYGGQQQSYGQQQSYNPPQGYGQQNQYNS
B1: the binding result is listed as “binds”.

B2: FUS LC G156E, low complexity domain of FUS (residues 1-163) with the pathogenic G156E mutation (domain or fragment, UniProt P35637 1-163, looked up)
chain: B1 chain with G156E
On to B2, for which the binding result is reported as “binds”.
